For data set [1], the target named is T1, ATPTT1 (Tetrahymena thermophila, UniProt I7LVQ8).
T1 construct: gene TTHERM_00137990; 55-kDa Fo-wing subunit of native mitochondrial ATP synthase dimer, purified in digitonin from T. thermophila mitochondria
T1 sequence (I7LVQ8 1-480): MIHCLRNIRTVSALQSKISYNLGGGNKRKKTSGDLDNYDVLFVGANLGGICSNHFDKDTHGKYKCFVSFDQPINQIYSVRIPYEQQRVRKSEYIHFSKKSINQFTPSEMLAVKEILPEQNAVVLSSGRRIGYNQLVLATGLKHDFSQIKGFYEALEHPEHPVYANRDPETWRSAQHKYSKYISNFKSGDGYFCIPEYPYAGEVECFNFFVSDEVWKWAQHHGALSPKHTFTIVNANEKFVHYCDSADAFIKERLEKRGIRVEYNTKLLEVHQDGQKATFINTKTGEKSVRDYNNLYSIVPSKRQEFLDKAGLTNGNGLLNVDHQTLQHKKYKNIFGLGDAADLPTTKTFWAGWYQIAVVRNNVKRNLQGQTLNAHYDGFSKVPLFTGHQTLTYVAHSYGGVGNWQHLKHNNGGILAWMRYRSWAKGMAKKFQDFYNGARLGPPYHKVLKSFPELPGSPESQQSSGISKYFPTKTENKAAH
The experiment in a line: cryo-EM structure. Conditions: co-purified native cofactor in pocket of two Rossmann folds; oxidation state not stated. The format is binding.

Data set [2] concerns the target type III mitochondrial F1Fo-ATP synthase (monomer) in complex with IF1 (Tetrahymena thermophila (endogenous in its mitochondria)) (UniProt Q951C1). The experiment in a line: cryo-EM structure; native ATP synthase tetramer particles of the same sample; 3.3 Å overall, Fo tetramer membrane region 3.1 Å; two dimer models refined into the Fo-tetramer map.
Data set [3] has the same target. The experiment in a line: cryo-EM structure; native IF1-inhibited ATP synthase dimer purified from T. thermophila mitochondria in digitonin (25 mM Hepes/KOH pH 7.5, 25 mM KCl, 5 mM MgCl2, 0.1% w/v digitonin); 2.7 Å overall, masked refinements 2.5-3.1 Å.
Data set [4] concerns the target F1 inhibitor protein IF1 (Tetrahymena thermophila (endogenous in its mitochondria)). The data set is described as above.
Data set [5] concerns the molecule itself. The data set is described as above.

The record followed here is paper PMC7583250, “Type III ATP synthase is a symmetry-deviated dimer that induces membrane curvature through tetramerization” (Nature Communications, 2020).

In the case of `NC(=O)c1ccc[n+]([C@@H]2O[C@H](COP(=O)([O-])OP(=O)(O)OC[C@H]3O[C@@H](n4cnc5c(N)ncnc54)[C@H](O)[C@@H]3O)[C@@H](O)[C@H]2O)c1` [NAD], in data set [1], the cryo-EM structure result is given as “in ATPTT1 the binding pocket formed by two Rossmann folds contains the co-factor”.

By stoichiometry N is commonly meant the number of molecules, sites or subunits per partner or assembly. Take “type III mitochondrial F1Fo-ATP synthase (monomer) in complex with IF1 (from UniProt Q951C1 1-446)”: the stoichiometry N in data set [2] was 4; in data set [3], 2.

Take “F1 inhibitor protein IF1 (natural protein)”: the stoichiometry N in data set [4] is 2.

B1: ATP synthase subunit-a (natural protein, UniProt Q951C1 1-446, looked up)
chain: MGRENVLPVHNDVYEDFVFTTPYFQPESTFKSVPKLFSDILLGGVEWVYTTSESVLAYDYKLWYLWSGVSNLDESFDMFFNQYWALSLSTSVFQLFYAVILDRYLSVLFQNTPYTNDWFRMMLHSKETALIWLYHPELSWHINGLNQFFTYFYGGILEFVYFDKSNPDMCILVHTLWIHLLILFLIFTGFVTILFSFYGNPNTEENTIDSDYLAASGTVEAEKEITSIDDYLGLVFAIAYVFGVFFYVHGWTSMLSHAVLLLSCYSIIIMFLFILGMPTLLLYDFGIFFLAYLKGAGKYISSVAEMMFDYTACLVFYIRILAQWIRVVLMVVTFISLSHYVSDFDITNSALIGSENQSDSMNELNTNFSMTYYILTVLPGKFIYWIYEILHTFFVVCSQFVAFFAIVFWLFLFLYTFFIIEKHEDFFSKKREERKKKLKELWNLKN
notes: ATP synthase subunit a, Tetrahymena thermophila; overall length of 446 amino acids, with 170- and 38-amino acid N- and C-terminal extensions; source: endogenous, purified from T. thermophila mitochondria within the ATP synthase (digitonin, sucrose cushion, Superose 6)
As for B1, in data set [5], the binding result was “binds”.
